# Measured values: patent publication US11339434B2, “Methods for determining gene functions” (The Regents of the University of California, priority 2016, dated 2022)
# B1: TPMT: peptide barcoded human thiopurine methyl transferase produced by cell-free transcription/translation (protein, UniProt P51580 1-245, looked up)
# Thiopurine S-methyltransferase: MDGTRTSLDIEEYSDTEVQKNQVLTLEEWQDKWVNGKTAFHQEQGHQLLKKHLDTFLKGKSGLRVFFPLCGKAVEMKWFADRGHSVVGVEISELGIQEFFTEQNLSYSEEPITEIPGTKVFKSSSGNISLYCCSIFDLPRTNIGKFDMIWDRGALVAINPGDRKCYADTMFSLLGKKFQYLLCVLSYDPTKHPGPPFYVPHAEIERLFGKICNIRCLEKVDAFEERHKSWGIDCLFEKLYLLTEK
# modifications: peptide barcode
# notes: peptide barcoded human thiopurine methyl transferase produced by cell-free transcription/translation
# Test: methylation of 6-mercaptopurine by peptide barcoded TPMT, LC-ESI-MS
# Assay type: biochemical
# Conditions: 1 mM 6-mercaptopurine, 37° C., approximately 24 hours
# Procedure: A polynucleotide encoding a peptide barcoded human thiopurine methyl transferase (TPMT) was incubated for 3 hours at 37° C. in the PURExpress® cell-free transcription/translation system (New England Biolabs, Inc. (Ipswich, Mass.)) according to the manufacturer's protocol in the presence (+protease) or the absence (−protease) of the WELQut-protease. […] After cell-free transcription/translation of peptide barcoded thiopurine methyl transferase (TPMT), 1 mM 6-mercaptopurine and phosphate buffered saline (0.1×) were added with (+cofactor) or without (−cofactor) 3.2 mM of the cofactor S-adenosyl-methionine (SAM). After incubation at 37° C., […] for approximately 24 hours (no shaking), methylation of 6-mercaptopurine and the presence of peptide barcode were determined by liquid chromatography-electrospray ionization-mass spectrometry (LC-ESI-MS).
molecule,measurement,setting,value
B1,methylated 6-mercaptopurine detected by mass spectrometry,"absence of cofactor S-adenosyl-methionine, absence of WELQut-protease",no methylated 6-mercaptopurine nor peptide barcode were detected
same,methylated 6-mercaptopurine detected by mass spectrometry,"absence of cofactor S-adenosyl-methionine, presence of WELQut-protease",no methylated 6-mercaptopurine was detected
same,methylated 6-mercaptopurine detected by mass spectrometry,presence of cofactor S-adenosyl-methionine (3.2 mM) and WELQut-protease,methylated 6-mercaptopurine and the peptide barcode were detected
same,methylated 6-mercaptopurine detected by mass spectrometry,"presence of cofactor S-adenosyl-methionine (3.2 mM), absence of WELQut-protease",methylated 6-mercaptopurine was detected
